Results published in paper PMC5938748 (Molecular microbiology, 2012).
Changes are numbered by the printed parent chain.

T1: Bacillus subtilis MutSF30A (B. subtilis, UniProt P49849 1-858, F30A)
T1 sequence (looked up): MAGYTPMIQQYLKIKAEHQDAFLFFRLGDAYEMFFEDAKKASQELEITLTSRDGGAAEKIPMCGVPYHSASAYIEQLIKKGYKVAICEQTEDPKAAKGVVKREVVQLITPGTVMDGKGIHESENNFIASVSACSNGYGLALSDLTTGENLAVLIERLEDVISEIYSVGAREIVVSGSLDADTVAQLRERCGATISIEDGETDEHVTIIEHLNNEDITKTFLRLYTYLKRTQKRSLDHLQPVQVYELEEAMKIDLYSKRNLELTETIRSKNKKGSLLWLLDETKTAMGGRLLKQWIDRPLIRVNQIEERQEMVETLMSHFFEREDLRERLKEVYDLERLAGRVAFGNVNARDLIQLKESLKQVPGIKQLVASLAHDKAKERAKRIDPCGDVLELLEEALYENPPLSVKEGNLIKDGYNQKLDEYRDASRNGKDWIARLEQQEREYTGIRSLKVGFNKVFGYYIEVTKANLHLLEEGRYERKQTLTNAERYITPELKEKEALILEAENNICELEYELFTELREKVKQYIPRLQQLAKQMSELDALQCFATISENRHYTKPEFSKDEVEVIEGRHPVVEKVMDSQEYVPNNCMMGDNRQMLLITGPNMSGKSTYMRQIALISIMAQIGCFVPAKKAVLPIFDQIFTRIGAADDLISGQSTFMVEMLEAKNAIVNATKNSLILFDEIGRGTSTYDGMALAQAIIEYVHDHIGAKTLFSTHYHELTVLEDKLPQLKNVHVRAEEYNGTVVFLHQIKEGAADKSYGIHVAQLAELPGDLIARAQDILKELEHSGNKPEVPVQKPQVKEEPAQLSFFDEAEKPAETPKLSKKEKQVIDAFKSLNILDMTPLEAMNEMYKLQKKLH

T2: Bacillus subtilis MutS (B. subtilis, UniProt P49849 1-858)
T2 sequence (looked up): T1 sequence (looked up) with A30F

T3: MutS (Bacillus subtilis, UniProt P49849 1-858)
T3 sequence: T1 sequence (looked up) with A30F

B1: Bacillus subtilis processivity clamp DnaN (natural protein, B. subtilis, UniProt P05649 1-378, looked up)
chain: MKFTIQKDRLVESVQDVLKAVSSRTTIPILTGIKIVASDDGVSFTGSDSDISIESFIPKEEGDKEIVTIEQPGSIVLQARFFSEIVKKLPMATVEIEVQNQYLTIIRSGKAEFNLNGLDADEYPHLPQIEEHHAIQIPTDLLKNLIRQTVFAVSTSETRPILTGVNWKVEQSELLCTATDSHRLALRKAKLDIPEDRSYNVVIPGKSLTELSKILDDNQELVDIVITETQVLFKAKNVLFFSRLLDGNYPDTTSLIPQDSKTEIIVNTKEFLQAIDRASLLAREGRNNVVKLSAKPAESIEISSNSPEIGKVVEAIVADQIEGEELNISFSPKYMLDALKVLEGAEIRVSFTGAMRPFLIRTPNDETIVQLILPVRTY
B2: 2-AP(+T) T-bulge duplex (dsDNA)
DNA 1: TAAAGGAAGTCGTCTATATATGGTATGACTAAGTGTA
DNA 2: TACACTTAGTCATACCATTATAGACGACTTCCTTTA
modifications: 2-aminopurine at position 18 of strand 1 (written as A)

Assays:
[1] = biological target: T1, Bacillus subtilis MutSF30A; test: far-Western, overlay or dot blot
Bacillus subtilis MutS = biological target: T2, Bacillus subtilis MutS; test: far-Western, overlay or dot blot
MutS = biological target: T3, MutS; test: 2-aminopurine fluorescence titration

Row | Binder | binding result [1] | binding result (Bacillus subtilis MutS) | Kd (MutS)
1 | B1 | binds | binds | –
2 | B2 | – | – | 24 nM
